For this assay, the target named is calmodulin (recombinant bovine CaM) (bovine, UniProt P62157 1-149). Kind of assay: fluorescence polarisation.

Ends that are not written are not given here.

B1: MARCKS effector domain (aa 151-175) labeled with BODIPY TR (peptide)
peptide: {BODIPY TR‑X}-KKKKKRFSFKKSFKLSGFSFKKNKK
With B1, the binding result was “binds”.

Values taken from doi:10.1101/2023.05.28.542642 (bioRxiv, 2023).
